Reference: paper PMC5433297, “Isoflavone Malonyltransferases GmIMaT1 and GmIMaT3 Differently Modify Isoflavone Glucosides in Soybean (Glycine max) under Various Stresses” (Frontiers in Plant Science, 2017)

How the values were obtained:
Assay in all cases: HPLC malonyltransferase assay, Lineweaver-Burk
Assay type in all cases: biochemical, Glycine max
[1] = substrate: O=c1c(-c2ccc(O)cc2)coc2cc(O[C@@H]3O[C@H](CO)[C@@H](O)[C@H](O)[C@H]3O)cc(O)c12; details: 40 μM malonyl-CoA, 20 mM potassium phosphate pH 7.2, 30°C
Source text: (§1) HPLC malonyltransferase assay, Lineweaver-Burk on GmIMaT3

[2] = substrate: CC(C)(COP(=O)(O)OP(=O)(O)OC[C@H]1O[C@@H](n2cnc3c(N)ncnc32)[C@H](O)[C@@H]1OP(=O)(O)O)[C@@H](O)C(=O)NCCC(=O)NCCSC(=O)CC(=O)O; details: 60 μM genistin as acceptor, 20 mM potassium phosphate pH 7.2, 30°C
Source text: as §1

[3] = substrate: O=c1c(-c2ccc(O)cc2)coc2cc(O[C@@H]3O[C@H](CO)[C@@H](O)[C@H](O)[C@H]3O)ccc12; details: 40 μM malonyl-CoA, 20 mM potassium phosphate pH 7.2, 30°C
Source text: as §1

[4] = substrate: COc1cc2c(=O)c(-c3ccc(O)cc3)coc2cc1O[C@@H]1O[C@H](CO)[C@@H](O)[C@H](O)[C@H]1O; details: 40 μM malonyl-CoA, 20 mM potassium phosphate pH 7.2, 30°C
Source text: as §1

[5] = substrate: O=c1c(-c2ccc(O)cc2)coc2cc(O[C@@H]3O[C@H](CO)[C@@H](O)[C@H](O)[C@H]3O)cc(O)c12; details: 40 μM malonyl-CoA, 20 mM potassium phosphate pH 7.2, 30°C; remark: listed apart in the source
Source text: (§2) HPLC malonyltransferase assay, Lineweaver-Burk on GmIMaT1

[6] = substrate: CC(C)(COP(=O)(O)OP(=O)(O)OC[C@H]1O[C@@H](n2cnc3c(N)ncnc32)[C@H](O)[C@@H]1OP(=O)(O)O)[C@@H](O)C(=O)NCCC(=O)NCCSC(=O)CC(=O)O; details: 60 μM genistin as acceptor, 20 mM potassium phosphate pH 7.2, 30°C; remark: listed apart in the source
Source text: as §2

[7] = substrate: O=c1c(-c2ccc(O)cc2)coc2cc(O[C@@H]3O[C@H](CO)[C@@H](O)[C@H](O)[C@H]3O)ccc12; details: 40 μM malonyl-CoA, 20 mM potassium phosphate pH 7.2, 30°C; remark: listed apart in the source
Source text: as §2

[8] = substrate: COc1cc2c(=O)c(-c3ccc(O)cc3)coc2cc1O[C@@H]1O[C@H](CO)[C@@H](O)[C@H](O)[C@H]1O; details: 40 μM malonyl-CoA, 20 mM potassium phosphate pH 7.2, 30°C; remark: listed apart in the source
Source text: as §2

Row | Protein | Km [1] [µM] | kcat/Km [1] [M⁻¹ s⁻¹] | Km [2] [µM] | kcat/Km [2] [M⁻¹ s⁻¹] | Km [3] [µM] | kcat/Km [3] [M⁻¹ s⁻¹] | Km [4] [µM] | kcat/Km [4] [M⁻¹ s⁻¹] | Km [5] [µM] | kcat/Km [5] [M⁻¹ s⁻¹] | Km [6] [µM] | kcat/Km [6] [M⁻¹ s⁻¹] | Km [7] [µM] | kcat/Km [7] [M⁻¹ s⁻¹] | Km [8] [µM] | kcat/Km [8] [M⁻¹ s⁻¹]
1 | GmIMaT3 (Glycine max) (protein, full-length ORF (467 residues), His-tagged fusion (pDEST17), E. coli BL21 (DE3), nickel resin, partially purified; cDNA from soybean roots; allele with three amino acid differences from GmMT7 and GmIF7MaT) MAETPTLRIHEVCPISPPQETPSTTIPFTFFDVLWLRLPPVERLFFYSFPNPTTTSSFFDTTILPNLKHSLSLTLHHFPPLAGTITWPLHTPLPLIAYTPGNSIPFRIAESNADFNTLSSNLSEVNNHRRNLIPHLPTSHEEASVLALQLTHFPNQGYSIGITSHHAALDGKSSTLFMKSWAHICSYLNTSPEEPLLFSLPKHLTPSFDRSVIRDPLGIGEIYAKSWTSFGGATNDRSLNVWDTLGGNQTDLVKGLFELTPLDIKKLKKLAESKFVVGDNKKKVRVTSFTVTCAYLLSCAVKAEQPNCERVHFVFNVDCRARLDPPIPETYFGNCVVALLASAKREELLGEEAFFKSVIGISEELNGLEGDVLNGADKWIPKIQSVVSETPRLFSVAGSPRFEVYGIDFGWGRPEKVDVASVNKTGAFSLSESRDHSGGIQIGLALTKNQMEAFSRVFAQGLESLES | 26.67 ± 0.86 | 1.54e+06 ± 140000 | 25.59 ± 2.2 | 750000 ± 120000 | 30.12 ± 2.6 | 1.15e+06 ± 120000 | 12.94 ± 1.3 | 5.61e+06 ± 1.25e+06 | – | – | – | – | – | – | – | –
2 | GmIMaT1 (Glycine max) (protein, full-length ORF (476 residues), His-tagged fusion (pDEST17), E. coli BL21 (DE3), nickel resin, partially purified; cDNA from soybean roots) MASHNIKIHDHLRVSPPSATEISLSLTFFDLFWLRFHPVERIFFYTLPTPHSNPSIFYSKLVPKLKTSLSRTLQHFPPLAGNVVWPDNTPNPTVQYTPGDSVSLVVAESEADFNHVLDNSPHKASELRCLVPHLDSSDSHASVVSFQITLFPNRGFSIGISTHHAVLDGKSSTIFIKAWASLCKTYNDDESSESSSPSLAPELKPFFDRTAIKDPSEIGLNFTVNWTEILTKFFPNENSDGRCLKLLPFPPRLEDHVRASFALTGADLEKLRKRVLSKWDIVDRGAESEPPRLSSFVLTCAYALACIAKAIHGVEKEKEKFAFAFTVDCRARLEPPIHDNYFGNCVWGHVVDAEPLDFIKEEAFAIVAKSIHSKIKMILDEGIFHGMESAFSRYESLGKDGVEIMGIAGSNRFGVYGTDFGWGKPAKVEIASVDRALTIGFAESKDGNDGVQVGLVLKKHVMDLFCTLFRQGMLDD | – | – | – | – | – | – | – | – | 23.04 ± 1.5 | 2.47e+06 ± 100000 | 18.30 ± 1.2 | 440000 ± 70000 | 36.28 ± 3.2 | 820000 ± 10000 | 13.11 ± 0.92 | 5.21e+06 ± 140000
